The target of assay [1] is Rituximab G2F (galactosylated fucosylated glycoform). Put plainly: SPR (Biacore T200), 1:1 Langmuir kinetic fit. For orientation: In SPR one partner is held on a chip, and binding of the other changes the refractive index at the surface.
The target in assay [2] is Rituximab G2 (galactosylated afucosylated glycoform). Put plainly: SPR (Biacore T200), 1:1 Langmuir kinetic fit.
Assay [3] has the same target. Put plainly: SPR, 1:1 Langmuir global fit, 1024 to 32 nM.
Assay [4] shares this target. Nature of the assay: SPR; drawn table, KD (G2).

Where a chain is given by its changes, count along the chain named.

A word on the Kd: it is the free concentration of one partner at which half of the binding sites on the other are occupied at equilibrium, for simple one-to-one binding. Read a high Kd as a looser complex.

B1: D3 (VHH, not shown: small tags and cut ends)
VHH: QVQLQESGGGLVQAGGSLRLSCAASGNISADRYMGWYRQAPGKEREFVAAIGYGGTTYYADSVKGRFTISRDNAKNTVYLQMNSLKPEDTAVYYCAVVDGAHSRHRYWGQGTQVTVSS
For the molecule B1, the Kd came to 1.9 µM in assay [1], 0.323 µM in assay [2] and 0.353 µM in assay [3].

B2: E2 (VHH)
VHH: QVQLQESGGGLVQAGGSLRLSCAASSYISRYHTMGWYRQAPGKERSFVAGITWGGLTYYADSVKGRFTVSRDNAKNTVYLQMNSLKPEDTAVYYCAVDGGTRADPYHYYWGQGTQVTVSS
In assay [4], B2 had a Kd of 4.74 µM.

B3: E4 (VHH)
VHH: B2 VHH with S26P, S46E, G50A, L56S, V69I, R102Y
Take B3: the Kd in assay [4] amounted to 2.48 µM.
